Columns and labels:
USP47 = target: T1, USP47 (human, UniProt Q96K76 1-1375, limits assumed); test: IP/MS, LZTR1 R810W-FLAG, U87
T1 sequence (looked up): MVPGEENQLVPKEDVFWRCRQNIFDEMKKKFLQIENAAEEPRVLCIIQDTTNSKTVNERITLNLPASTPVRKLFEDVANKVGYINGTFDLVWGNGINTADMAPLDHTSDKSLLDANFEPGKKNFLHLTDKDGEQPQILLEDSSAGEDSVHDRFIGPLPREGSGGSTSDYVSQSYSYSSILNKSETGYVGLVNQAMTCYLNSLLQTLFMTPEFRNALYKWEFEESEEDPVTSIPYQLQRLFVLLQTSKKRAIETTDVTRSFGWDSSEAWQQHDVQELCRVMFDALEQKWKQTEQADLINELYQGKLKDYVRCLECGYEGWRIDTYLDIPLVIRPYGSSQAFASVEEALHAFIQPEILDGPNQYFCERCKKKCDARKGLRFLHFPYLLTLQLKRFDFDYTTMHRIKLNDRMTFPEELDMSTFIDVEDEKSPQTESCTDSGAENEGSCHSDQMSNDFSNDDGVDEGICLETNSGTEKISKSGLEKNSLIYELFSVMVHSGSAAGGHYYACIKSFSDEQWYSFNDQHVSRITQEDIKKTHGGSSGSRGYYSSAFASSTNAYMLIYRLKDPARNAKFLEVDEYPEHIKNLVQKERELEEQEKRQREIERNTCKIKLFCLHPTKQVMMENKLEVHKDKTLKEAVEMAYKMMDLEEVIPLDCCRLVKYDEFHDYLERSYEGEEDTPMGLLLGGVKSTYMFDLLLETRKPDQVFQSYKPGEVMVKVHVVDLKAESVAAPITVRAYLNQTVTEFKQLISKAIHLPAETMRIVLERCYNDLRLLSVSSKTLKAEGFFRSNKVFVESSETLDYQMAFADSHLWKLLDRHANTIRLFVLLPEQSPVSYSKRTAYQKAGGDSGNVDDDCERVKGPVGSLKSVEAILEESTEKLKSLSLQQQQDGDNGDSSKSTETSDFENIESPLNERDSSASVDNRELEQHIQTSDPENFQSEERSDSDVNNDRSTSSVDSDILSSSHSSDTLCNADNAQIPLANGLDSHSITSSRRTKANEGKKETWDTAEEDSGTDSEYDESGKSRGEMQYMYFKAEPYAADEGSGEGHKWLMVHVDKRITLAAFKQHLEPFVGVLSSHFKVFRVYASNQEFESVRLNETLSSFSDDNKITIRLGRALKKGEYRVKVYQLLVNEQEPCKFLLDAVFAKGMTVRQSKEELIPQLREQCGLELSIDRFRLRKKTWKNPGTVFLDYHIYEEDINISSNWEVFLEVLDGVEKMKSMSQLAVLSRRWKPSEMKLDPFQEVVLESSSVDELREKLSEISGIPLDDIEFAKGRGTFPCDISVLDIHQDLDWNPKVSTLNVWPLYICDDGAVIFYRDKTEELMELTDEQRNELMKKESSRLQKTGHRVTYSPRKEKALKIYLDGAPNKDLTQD
Summary of the method: (§1)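 Gel slices were reduced with 5 mM DTT, alkylated with 11 mM IAA and digested overnight at 37° C. with trypsin. Peptides were analysed on an Orbitrap Fusion Tribrid by LC-MS/MS.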

ARHGEF28 = ARHGEF28 (human, UniProt Q8N1W1 1-1705, limits assumed); test: IP/MS, LZTR1 R810W-FLAG, U87
ARHGEF28, sequence (Q8N1W1 whole entry): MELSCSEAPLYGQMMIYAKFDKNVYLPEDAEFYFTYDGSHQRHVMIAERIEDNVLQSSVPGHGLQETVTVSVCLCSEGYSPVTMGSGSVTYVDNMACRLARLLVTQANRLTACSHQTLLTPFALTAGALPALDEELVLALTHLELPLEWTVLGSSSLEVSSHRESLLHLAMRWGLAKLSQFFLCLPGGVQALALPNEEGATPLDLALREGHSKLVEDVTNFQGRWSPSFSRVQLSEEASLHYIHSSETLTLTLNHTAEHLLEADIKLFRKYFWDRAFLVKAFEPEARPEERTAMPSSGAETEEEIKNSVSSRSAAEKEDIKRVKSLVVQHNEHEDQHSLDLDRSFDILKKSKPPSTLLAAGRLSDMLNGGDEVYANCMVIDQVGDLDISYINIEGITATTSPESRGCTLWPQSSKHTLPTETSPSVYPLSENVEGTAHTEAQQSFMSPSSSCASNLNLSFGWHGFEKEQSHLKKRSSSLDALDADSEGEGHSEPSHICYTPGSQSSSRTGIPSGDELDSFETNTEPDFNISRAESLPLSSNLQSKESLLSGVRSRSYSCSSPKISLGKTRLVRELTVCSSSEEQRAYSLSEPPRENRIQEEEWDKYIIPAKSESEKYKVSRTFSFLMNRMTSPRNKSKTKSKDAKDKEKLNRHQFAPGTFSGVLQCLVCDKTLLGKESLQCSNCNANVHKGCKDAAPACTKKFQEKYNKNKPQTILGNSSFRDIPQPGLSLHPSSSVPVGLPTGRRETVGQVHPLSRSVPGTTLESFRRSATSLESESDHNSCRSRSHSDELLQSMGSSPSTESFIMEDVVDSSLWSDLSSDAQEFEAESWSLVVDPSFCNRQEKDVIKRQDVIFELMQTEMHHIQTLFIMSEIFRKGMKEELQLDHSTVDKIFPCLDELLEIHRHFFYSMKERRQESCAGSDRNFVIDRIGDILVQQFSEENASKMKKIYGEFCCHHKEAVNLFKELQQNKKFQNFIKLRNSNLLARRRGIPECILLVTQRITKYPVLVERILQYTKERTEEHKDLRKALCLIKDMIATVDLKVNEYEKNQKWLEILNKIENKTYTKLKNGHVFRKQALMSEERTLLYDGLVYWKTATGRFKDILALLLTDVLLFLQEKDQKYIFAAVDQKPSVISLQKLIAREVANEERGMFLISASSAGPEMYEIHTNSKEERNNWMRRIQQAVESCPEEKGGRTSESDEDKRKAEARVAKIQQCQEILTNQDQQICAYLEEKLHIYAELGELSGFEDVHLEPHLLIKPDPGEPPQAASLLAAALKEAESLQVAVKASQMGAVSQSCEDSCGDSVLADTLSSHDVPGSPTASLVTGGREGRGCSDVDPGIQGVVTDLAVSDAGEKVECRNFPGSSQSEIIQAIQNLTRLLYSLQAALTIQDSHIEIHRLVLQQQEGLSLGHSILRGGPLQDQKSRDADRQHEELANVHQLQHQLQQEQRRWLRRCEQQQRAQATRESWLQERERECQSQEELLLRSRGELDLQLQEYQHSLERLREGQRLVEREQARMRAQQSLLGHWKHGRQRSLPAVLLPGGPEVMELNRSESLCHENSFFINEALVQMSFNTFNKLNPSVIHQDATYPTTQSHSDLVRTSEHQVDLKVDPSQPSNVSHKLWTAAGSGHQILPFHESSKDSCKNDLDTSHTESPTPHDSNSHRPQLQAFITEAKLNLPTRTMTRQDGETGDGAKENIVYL
Summary of the method: as §1

B1: LZTR1 R810W-FLAG (other, human, UniProt Q8N653 1-840, looked up)
chain: MAGPGSTGGQIGAAALAGGARSKVAPSVDFDHSCSDSVEYLTLNFGPFETVHRWRRLPPCDEFVGARRSKHTVVAYKDAIYVFGGDNGKTMLNDLLRFDVKDCSWCRAFTTGTPPAPRYHHSAVVYGSSMFVFGGYTGDIYSNSNLKNKNDLFEYKFATGQWTEWKIEGRLPVARSAHGATVYSDKLWIFAGYDGNARLNDMWTIGLQDRELTCWEEVAQSGEIPPSCCNFPVAVCRDKMFVFSGQSGAKITNNLFQFEFKDKTWTRIPTEHLLRGSPPPPQRRYGHTMVAFDRHLYVFGGAADNTLPNELHCYDVDFQTWEVVQPSSDSEVGGAEVPERACASEEVPTLTYEERVGFKKSRDVFGLDFGTTSAKQPTQPASELPSGRLFHAAAVISDAMYIFGGTVDNNIRSGEMYRFQFSCYPKCTLHEDYGRLWESRQFCDVEFVLGEKEECVQGHVAIVTARSRWLRRKITQARERLAQKLEQEAAPVPREAPGVAAGGARPPLLHVAIREAEARPFEVLMQFLYTDKIKYPRKGHVEDVLLIMDVYKLALSFQLCRLEQLCRQYIEASVDLQNVLVVCESAARLQLSQLKEHCLNFVVKESHFNQVIMMKEFERLSSPLIVEIVRRKQQPPPRTPLDQPVDIGTSLIQDMKAYLEGAGAEFCDITLLLDGHPRPAHKAILAARSSYFEAMFRSFMPEDGQVNISIGEMVPSRQAFESMLRYIYYGEVNMPPEDSLYLFAAPYYYGFYNNRLQAYCKQNLEMNVTVQNVLQILEAADKTQALDMKRHCLHIIVHQFTKVSKLPTLWSLSQQLLLDIIDSLASHISDKQCAELGADI
notes: Stably expressed in U87 cells by lentivirus; also called LZTR1-FLAG-R810W; LZTR1 RW; not shown: FLAG tag
B1: binds (USP47); binds (ARHGEF28).

Reference: patent US20250262210A1 (TRUSTEES OF COLUMBIA UNIVERSITY IN THE CITY OF NEW YORK, published 2025)
